Data set [1] deals with T1, human alpha-thrombin (Homo sapiens, UniProt P00734;P00734 328-363;364-622). The data set is described as follows: blot with protected Apt-AuNP probe and gold enhancement; thrombin in 10-fold diluted human serum on PVDF; protection DNA 1 uM before 10x dilution; as low as 30 ng detected; binding buffer 100 mM NaCl, 20 mM Tris-HCl, 2 mM MgCl2, 5 mM KCl, 1 mM CaCl2, 0.02% Tween 20; pH and temperature of binding not stated.

Data set [2] deals with T1, human alpha-thrombin. In words: blot with Apt-AuNP probe and gold enhancement; thrombin in 10-fold diluted human serum on PVDF; strong background from serum proteins; binding buffer 100 mM NaCl, 20 mM Tris-HCl, 2 mM MgCl2, 5 mM KCl, 1 mM CaCl2, 0.02% Tween 20; pH and temperature of binding not stated.

B1: thrombin 15-mer aptamer protected with PolyA-Oligo10 on AuNP (mixed)
DNA: GGTTGGTGTGGTTGG
?: AAAAAAAAAAAAAAAAAAAACCAACCACAC
modifications: 5'-SH-(CH2)6 thiol on strand 1
With B1, the binding result in data set [1] is listed as “binds”.
For the molecule GGTTGGTGTGGTTGG (ssDNA, 5'-SH-(CH2)6 thiol) [thrombin 15-mer aptamer on AuNP (Apt-AuNP)], the binding result in data set [2] was “binds”.

Source of the values: publication PMC5372222.
